Sequences and labels used below:
T1: human TREM2 on the cell surface (human, UniProt Q9NZC2 19-230)
T1 sequence: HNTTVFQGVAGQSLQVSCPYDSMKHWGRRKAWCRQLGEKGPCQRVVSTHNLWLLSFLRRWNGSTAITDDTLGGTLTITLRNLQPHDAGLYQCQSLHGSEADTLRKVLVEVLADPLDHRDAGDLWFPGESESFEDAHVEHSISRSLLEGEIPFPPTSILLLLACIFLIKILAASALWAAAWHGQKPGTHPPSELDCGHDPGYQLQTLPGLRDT

T2: His-tagged human TREM2 ECD (human, UniProt Q9NZC2 19-172)
T2 construct: Biacore and HDX say only recombinant human TREM2 (ECD); also called recombinant human TREM2; hTREM2
T2 sequence: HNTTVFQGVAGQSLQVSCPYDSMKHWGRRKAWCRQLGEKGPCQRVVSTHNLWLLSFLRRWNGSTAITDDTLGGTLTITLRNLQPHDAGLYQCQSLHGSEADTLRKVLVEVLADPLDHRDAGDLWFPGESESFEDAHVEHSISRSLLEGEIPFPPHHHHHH

T3: human TREM2 full length stalk region peptide (aa 129-172) (human, biotinylated (site not stated))
T3 construct: also called Human TREM2 peptide (aa 129-172); full-length TREM2 stalk peptide
T3 peptide: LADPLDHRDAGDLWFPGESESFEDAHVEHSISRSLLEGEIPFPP

T4: human TREM2 truncated stalk peptide (aa 149-163) (human, also: biotinylated (site not given here))
T4 construct: also called Human TREM2 peptide (aa 149-163); truncated stalk peptide containing the ADAM10/17 cleavage site
T4 peptide: SFEDAHVEHSISRSL

T5: mouse TREM2 full length stalk region peptide (aa 131-169) (mouse, UniProt Q99NH8 131-169, biotinylated (site not stated))
T5 peptide (looked up): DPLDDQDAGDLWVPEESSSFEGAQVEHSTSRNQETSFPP

B1: CL0020201 (antibody, V domains shown)
VH: EVQLQQSGPVLVKPGASVRMSCKPSGYTFTDYYMNWVKQSHGKSLEWIGSINPYTGGSSYNQNFRGKATLTVDKSSSTAYMELNSLTSEDSAVYYCARGSYYSNLGFAYWGQGTLVTVSA
VL: DVQLTQSPSFLTASPGETITINCRASKSISKYLAWYQEKPGKTNKLLISSGSTLQSGIPSRFSGSGSGTDFTLTISSLEPEDFAMYYCQQYSEYPFTFGSGTKLEIK
notes: also called Clone CL0020201
B2: CL0020308 (antibody, V domains shown)
VH: QVQLKQSGPSLVQPSQSLSITCTVSGFSLTTYGIHWVRQSPGKGLEWLGVIWTGGSTAFNAAFMSRLSITKDNSKSQVFFKMNSLQADDTAIYYCAKVGFHSATDYWGQGTSVTVSS
VL: DVLMTQTPLSLPVTLGDQASISCRSSQNLVHSNGNTYLEWYLQKPGQSPKLLIYKVSNRFSGVPDRFSGSGSGTDFTLKISRVEAEDLGLYYCFQGSHVPFTFGSGTKLEIK
notes: also called Clone CL0020308
B3: CL0020309 (antibody, V domains shown)
VH: B2 VH with T31S, I34V, H35Q, S56T, A58D, M64K, T90S, V98I, T104V
VL: B2 VL with T14S, L29I, S81N, V99I, K108Q
notes: also called Clone CL0020309
B4: CL0020188-1 (antibody, V domains shown)
VH: EVQLVESGGGLVQPGGSLRLSCAASGFTFTDFYMSWVRQAPGKGLEWVSVIRNKANGYTAGYNPSVKGRFTISRDNSKNTLYLQMNSLRAEDTAVYYCARLTYGFDYWGQGTLVTVSS
VL: DIVMTQTPLSLPVTPGEPASISCQSSKSLLHSNGKTYLNWYLQKPGQSPQLLIYWMSTRASGVPDRFSGSGSGTDFTLKISRVEAEDVGVYYCQQFLEYPFTFGQGTKVEIK
notes: also called Clone CL0020188-1
B5: CL0020188-3 (antibody, V domains shown)
VH: B4 VH
VL: B4 VL with N33T
notes: Humanized variant of CL0020188 (hVH NG/graft, hVL TG/graft); also called Clone CL0020188-3
B6: CL0020188-5 (antibody, V domains shown)
VH: B4 VH with G57A
VL: B4 VL
notes: Humanized variant of CL0020188 (hVH NA/graft, hVL NG/graft); also called Clone CL0020188-5
B7: CL0020188-2 (antibody, V domains shown)
VH: B4 VH with A24G, L45P, V48L
VL: B4 VL
notes: Humanized variant of CL0020188 (hVH NG/3 m, hVL NG/graft); also called Clone CL0020188-2
B8: CL0020188-8 (antibody, V domains shown)
VH: B4 VH with A24G, L45P, V48L, G57A
VL: B4 VL with N33T
notes: Humanized variant of CL0020188 (hVH NA/3 m, hVL TG/graft); also called Clone CL0020188-8
B9: CL0020188-6 (antibody, V domains shown)
VH: B4 VH with A24G, L45P, V48L, G57A
VL: B4 VL
notes: Humanized variant of CL0020188 (hVH NA/3 m, hVL NG/graft); also called Clone CL0020188-6
B10: CL0020123-1 (antibody, V domains shown)
VH: QVQLVQSGAEVKKPGASVKVSCKASGFSIEDFYIHWVRQAPGQGLEWMGWIDPENGDSKYAPKFQGRATITADTSTSTAYMELSSLRSEDTAVYYCHADHGNYGSTMDYWGQGTLVTVSS
VL: DIQMTQSPSSLSASVGDRVTITCHASQHINVWLSWYQQKPGKAPKLLIYKASNLHTGVPSRFSGSGSGTDFTLTISSLQPEDFATYYCQQGQTYPRTFGQGTKVEIK
notes: Humanized variant of CL0020123 (hVH NGDS/2 m, Vk graft); also called Clone CL0020123-1
B11: CL0020123-8 (antibody, V domains shown)
VH: B10 VH with N55Q, D57E, A68V
VL: B10 VL
notes: Humanized variant of CL0020123 (hVH QGES/1 m, Vk graft); also called Clone CL0020123-8
B12: CL0020123-2 (antibody, V domains shown)
VH: B10 VH with A68V
VL: B10 VL
notes: Humanized variant of CL0020123 (hVH NGDS/1 m, Vk graft); also called Clone CL0020123-2
B13: CL0020123-4 (antibody, V domains shown)
VH: B10 VH with D57E
VL: B10 VL
notes: Humanized variant of CL0020123 (hVH NGES/2 m, Vk graft); also called Clone CL0020123-4
B14: CL0020123-3 (antibody, V domains shown)
VH: B10 VH with N55Q
VL: B10 VL
notes: Humanized variant of CL0020123 (hVH QGDS/2 m, Vk graft); also called Clone CL0020123-3
B15: CL0020123-6 (antibody, V domains shown)
VH: B10 VH with N55Q, A68V
VL: B10 VL
notes: Humanized variant of CL0020123 (hVH QGDS/1 m, Vk graft); also called Clone CL0020123-6

Numbering of substitutions follows the chain as printed. No end group written: not given here.

One test deals with T1, human TREM2 on the cell surface. Description: cell-based or functional assay.
Take B1: the “NFAT EC50 (nM), plate coated mAb” value was determined as 81.7 nM; the “Survival EC50 (nM), plate coated mAb, human macrophages” value (from here on “Survival EC50 (nM), plate coated mAb”) was 6.6 nM; the “pSyk activation (human macrophages) EC50 (nM)” value was found to be 9.5 nM.
Turning to B2, the “NFAT EC50 (nM), plate coated mAb” value came to 51.9 nM; the “Survival EC50 (nM), plate coated mAb” value was determined as 8.9 nM; the “pSyk activation (HEK293-H6) EC50 (nM)” value is 33.4 nM.
Take B3: the “Survival EC50 (nM), plate coated mAb” value turned out to be 2.69 nM and the “pSyk activation (HEK293-H6) EC50 (nM)” value turned out to be 40.6 nM.

For the next test the target is unchanged. Kind of test: cell binding, human macrophages, dose titration.
For orientation: EC50 means the concentration at which the effect is half-maximal. A higher EC50 goes with a need for much substance. Turning to B2, the EC50 was 0.6 nM.
Same read-out and setting: the figure for B3 is 0.7 nM.

A further test has as its target T6, recombinant cynomolgus TREM2 ECD (cynomolgus).
T6 construct: extracellular domain; also called cyno TREM2
Kind of test: SPR (Biacore), antibody captured via anti-human Fab, recombinant TREM2 ECD injected, 1:1 fit. On the procedure: (§1) Surface plasmon resonance (Biacore™ 8K instrument) was used to measure anti-TREM2 antibody affinities for human and cynomolgus TREM2 ECD. Anti-TREM2 antibodies were captured using Human Fab Capture Kit (GE Healthcare Life Sciences, Catalog No. 28958325) on a Biacore Series S CM5 sensor chip (GE Healthcare Life Sciences, Catalog No. 29149604). Serial 3-fold dilutions of recombinant human or cynomolgus TREM2 were injected at a flow rate of 30 μL/min. Antibody binding was monitored for 300 seconds, followed by monitoring of antibody dissociation for 600+seconds in HBS-EP+ running buffer (GE Healthcare Life Sciences, Catalog No. BR100669). The binding response was corrected by subtracting the RU value from a blank flow cell. A 1:1 Languir model of simultaneous fitting of kₒₙ and koff was used for kinetics analysis.
(SPR reads the build-up and loss of mass on a sensor chip optically.)
Usually Kd stands for the equilibrium constant for the complex coming apart. For B1, the Kd was 13.4 nM.
B2: the Kd was found to be 2.28 nM.
Still for that read-out and setting: the value for B3 was 5.33 nM.

The next test deals with T2, His-tagged human TREM2 ECD. The description is as above. On the procedure: as §1
Take B1: the Kd was 0.54 nM.
On to B2, for which the Kd was found to be 2.31 nM.
Still for that read-out and setting: the value for B3 was 5.31 nM.

The target of a further test is T1, human TREM2 on the cell surface. Description: flow cytometry, dose-titrated binding to HEK293-H6 cells. The protocol:
After incubation, the cells were centrifuged and washed in FACS buffer (PBS+0.5% BSA) twice. Mixed cells were resuspended in FACS buffer with human Trustain FcX solution (Biolegend, Catalog No. 422302) at a density of 10⁶/mL per cell line. The mixed cell lines were seeded at 200,000 cells per well in a 96-well round-bottom plate and incubated for 20 minutes at room temperature. After incubation, the cells were centrifuged and incubated with anti-TREM2 antibodies of about 0-200 nM dose titration for 45 minutes on ice. After incubation, the cells were centrifuged and washed with FACS buffer three times. […] After incubation, the cells were washed with FACS buffer three times, resuspended in 100 μL of FACS buffer, and analyzed by flow cytometry (BD FACSCanto II, San Jose, Calif.), for which 30,000 events were obtained for each sample. Mean fluorescence intensity per cells were calculated by FlowJo software and used for generating dose response binding curve.
(§2) Sequence optimization was conducted by searching within CDR sequences for residues that are susceptible to chemical modification (e.g., asparagine deamidation motifs (NG), aspartic acid isomerization motifs (DS), and potential oxidation residues (tryptophan (W) and methionine (M)) and making amino acid substitutions with conservative and germline residues to remove such sequence liabilities. Humanized and sequence-optimized variants of anti-TREM2 antibodies were then analyzed for binding kinetics using Biacore and dose-titrated cell binding to HEK293-H6 cells (see, Example 1 for representative protocols).
Molecule B4 gave an EC50 of 0.42 nM.
Turning to B5, the EC50 turned out to be 0.64 nM.
B6 came in with an EC50 of 0.45 nM.
The same measure, in the same setting: the figure for B7 is 0.26 nM.
Same read-out and setting: the value for B8 was 0.51 nM; that for B9 was 0.31 nM.
For B10, the concentration giving a half-maximal response (EC50) worked out at 0.25 nM.
B11 showed an EC50 of 0.38 nM.
As to B12, a half-maximal response (EC50) required 0.23 nM.
Regarding B13, the EC50 came out at 0.17 nM.
As to B14, a half-maximal response (EC50) required 0.24 nM.
B15: a half-maximal effect (EC50) was put at 0.29 nM.

For the next test, the target named is T2, His-tagged human TREM2 ECD. Description: SPR (Biacore). On the procedure:
as §1, §2
In turn, B4 came in with a Kd of 2.3 nM.
The same measure, in the same setting: the figure for B5 is 6.8 nM; for B6 it is 5.1 nM; for B7 it is 3.4 nM.
In turn, B8 gave a Kd of 7.3 nM.
B9: binding was characterised by a dissociation constant (Kd) of 4 nM.
Turning to B10, binding was put at a Kd of 0.14 nM.
Molecule B11 showed a Kd of 0.39 nM.
B12 came in with a Kd of 0.18 nM.
On to B13, for which the affinity, expressed as Kd, was 0.17 nM.
With B14, the equilibrium dissociation constant (Kd) was determined as 0.4 nM.
The same measure, in the same setting: the value for B15 was 0.32 nM.

The next test concerns the target T3, human TREM2 full length stalk region …. Kind of test: ELISA on biotinylated peptide captured by streptavidin; A450 normalised to isotype control. On the procedure: (§3) TREM2 antibodies were evaluated for binding to human and mouse TREM2 stalk region peptides. […] Antibody binding to TREM2 stalk peptides was detected using standard sandwich ELISA. Briefly, a 96-well half-area ELISA plate was coated with streptavidin overnight at 4° C. The following day, biotinylated TREM2 stalk peptides diluted in 1% BSA/PBS were added to the plate and incubated for 1 hour. Antibodies diluted in 1% BSA/PBS were then added and incubated for 1 hour. Antibodies bound to peptide were detected with anti-human kappa-HRP secondary antibody (Bethyl Laboratories, Inc.) diluted in 1% BSA/PBS. Plates were assayed by reaction with a detection reagent (One-step TMB Ultra, Thermo) and measurement of absorbance at 450 nm (A450) by standard spectrophotometry instrumentation (BioTek®). Data are shown as normalized values (fold over background where background=isotype control).
For B1, the “fold over background (A450)” value was 14 fold.
The same measure, in the same setting: the figure for B2 is 11 fold.
On the same count and under the same terms, the value for B3 was 11 fold.

A further test has as its target T4, human TREM2 truncated stalk peptide (aa …). Described as above. On the procedure:
as §3
Consider B1, for which the “fold over background (A450)” value worked out at 1.7 fold.

The next test concerns the target T5, mouse TREM2 full length stalk region …. The description is as above. The protocol: as §3
Regarding B1, the “fold over background (A450)” value is 5.4 fold.
For B2, the “fold over background (A450)” value was found to be 7.9 fold.
Same read-out and setting: the value for B3 was 6.6 fold.

These data come from patent US20220119522A1 (DENALI THERAPEUTICS, published 2022).
